From patent publication US20250277045A1 (KEYMED BIOSCIENCES, published 2025)

T1: human BCMA on cells (CHO-hBCMA clone 2C2; NCI-H929; RPMI-8226) (human, UniProt Q02223 1-184)
T1 sequence (looked up): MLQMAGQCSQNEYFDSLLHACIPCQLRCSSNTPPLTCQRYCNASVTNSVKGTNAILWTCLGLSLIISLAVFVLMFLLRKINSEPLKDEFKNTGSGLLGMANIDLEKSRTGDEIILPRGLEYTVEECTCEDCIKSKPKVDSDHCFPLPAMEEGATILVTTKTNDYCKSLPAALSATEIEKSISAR


What was measured:
[1] = molecular target: human CD3 on T cells (Jurkat cells; human peripheral blood CD4+ and CD8+ T cells) (human, UniProt P07766 23-207); assay: cell-based or functional assay
Chain of human CD3 on T cells (Jurkat cells; human peripheral blood CD4+ and CD8+ T cells) (P07766 23-207): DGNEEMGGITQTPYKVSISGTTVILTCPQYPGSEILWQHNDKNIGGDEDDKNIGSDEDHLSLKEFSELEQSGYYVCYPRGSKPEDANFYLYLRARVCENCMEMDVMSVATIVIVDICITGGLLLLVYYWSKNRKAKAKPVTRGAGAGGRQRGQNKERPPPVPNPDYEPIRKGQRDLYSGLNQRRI

[2] = molecular target: T1, human BCMA on cells (CHO-hBCMA clone …); assay: cell-based or functional assay
For Upregulation of CD25 (%), CD4+T in this document: test concentration or dose not given here.
For Upregulation of CD25 (%), CD8+T in this document: test concentration or dose not given here.
For Upregulation of CD69 (%), CD4+T in this document: test concentration or dose not given here.
For Upregulation of CD69 (%), CD8+T in this document: test concentration or dose not given here.

Binder | Upregulation of CD25 (%), CD4+T [1] | Upregulation of CD25 (%), CD8+T [1] | Upregulation of CD25 EC50, CD4+T [1] | Upregulation of CD25 EC50, CD8+T [1] | Upregulation of CD69 (%), CD4+T [1] | Upregulation of CD69 (%), CD8+T [1] | Upregulation of CD69 EC50, CD4+T [1] | Upregulation of CD69 EC50, CD8+T [1] | Killing EC50 (TDCC, LDH release; PBMC + RPMI-8226) [2]
h40C6-CD3 (bispecific antibody, V domains shown) VH 1: QVQLVQSGSELKKPGASVKVSCKASGYIFTNFGMNWVREAPGQGLEWMGWINTYTGEQIYADDFKGRFAFSLDTSASTAYLQISSLKAEDTAVYFCARGEIYYGYDVGFVYWGQGTLVTVSS VL 1: DIVLTQSPASLAVSPGQRATITCRASRSVTTSGYSYIHWYQKKPGQPPKLLIYLASDLEAGVPARFSGSGSGTDFTLTINPVEANDTANYYCQHSRELPWTFGQGTKVEIK VH 2: EVQLVESGGGLVQPGGSLRLSCAASGFTFNTYAMNWVRKAPGKGLEWVGRIRSKYNNYATYYADSVKDRFTISRDDSKNSLYLQMNSLKTEDTAVYYCVRHGNFGNSYVSWFAYWGQGTLVTVSS VL 2: QAVVTQEPSLTVSPGGTVTLTCRSSTGAVTTSNYANWVQEKPGQAPRGLIGGTNKRAPWTPARFSGSLLGGKAALTITGAQAEDEAEYYCVLWYSNLWVFGGGTKLTVL | 25% | 28% | 450 pM | 490 pM | 37% | 44% | 630 pM | 210 pM | 1120 pM
h38D9-CD3 (bispecific antibody, V domains shown) VH 1: QVQLVQSGSELKKPGASVKVSCKASGYIFTNFGMNWVREAPGQGLEWMGWINTYTGEQIYADDFKGRFAFSLDTSASTAYLQISSLKAEDTAVYFCARGEIYYGYDVGFVYWGQGTLVTVSS VL 1: DIVLTQSPASLAVSPGQRATITCRASKSVSTSGYSYMHWYQKKPGQPPKLLIYLGSDLESGVPARFSGSGSGTDFTLTINPVEANDTANYYCQHSRELPWTFGQGTKVEIK VH 2: EVQLVESGGGLVQPGGSLRLSCAASGFTFNTYAMNWVRKAPGKGLEWVGRIRSKYNNYATYYADSVKDRFTISRDDSKNSLYLQMNSLKTEDTAVYYCVRHGNFGNSYVSWFAYWGQGTLVTVSS VL 2: QAVVTQEPSLTVSPGGTVTLTCRSSTGAVTTSNYANWVQEKPGQAPRGLIGGTNKRAPWTPARFSGSLLGGKAALTITGAQAEDEAEYYCVLWYSNLWVFGGGTKLTVL | 29% | 35% | 770 pM | 1750 pM | 57% | 52% | 520 pM | 370 pM | 1040 pM
h29A11-CD3 (bispecific antibody, V domains shown) VH 1: QVQLVQSGSELKKPGASVKVSCKASGYIFTNFGMNWVREAPGQGLEWMGWINTYTGEQIYADDFKGRFAFSLDTSASTAYLQISSLKAEDTAVYFCARGEIYYGYDVGFVYWGQGTLVTVSS VL 1: DIVLTQSPASLAVSPGQRATITCRASKSVSTSGYSYMHWYQKKPGQPPKLLIYLASNLESGVPARFSGSGSGTDFTLTINPVEANDTANYYCQHSRELPWTFGQGTKVEIK VH 2: EVQLVESGGGLVQPGGSLRLSCAASGFTFNTYAMNWVRKAPGKGLEWVGRIRSKYNNYATYYADSVKDRFTISRDDSKNSLYLQMNSLKTEDTAVYYCVRHGNFGNSYVSWFAYWGQGTLVTVSS VL 2: QAVVTQEPSLTVSPGGTVTLTCRSSTGAVTTSNYANWVQEKPGQAPRGLIGGTNKRAPWTPARFSGSLLGGKAALTITGAQAEDEAEYYCVLWYSNLWVFGGGTKLTVL | 33% | 36% | 450 pM | 3850 pM | 47% | 58% | 370 pM | 3390 pM | 690 pM
h15H10-CD3 (bispecific antibody, V domains shown) VH 1: QVQLVQSGSELKKPGASVKVSCKASGYTFTNFGMNWVREAPGQGLEWMGWINTYTGDLIYGDDFKGRFAFSLDTSASTAYLQISSLKAEDTAVYFCARGEIYYGYDVGFAYWGQGTLVTVSS VL 1: DIVLTQSPASLAVSPGQRATITCRASKSVSTSGYSYMHWYQKKPGQPPKLLIYLASNLESGVPARFSGSGSGTDFTLTINPVEANDTANYYCQHSRELPWTFGQGTKVEIK VH 2: EVQLVESGGGLVQPGGSLRLSCAASGFTFNTYAMNWVRKAPGKGLEWVGRIRSKYNNYATYYADSVKDRFTISRDDSKNSLYLQMNSLKTEDTAVYYCVRHGNFGNSYVSWFAYWGQGTLVTVSS VL 2: QAVVTQEPSLTVSPGGTVTLTCRSSTGAVTTSNYANWVQEKPGQAPRGLIGGTNKRAPWTPARFSGSLLGGKAALTITGAQAEDEAEYYCVLWYSNLWVFGGGTKLTVL | 36% | 41% | 3850 pM | 2640 pM | 58% | 62% | 3390 pM | 940 pM | 1830 pM
h34G2-CD3 (bispecific antibody, V domains shown) VH 1: QVQLVQSGSELKKPGASVKVSCKASGYTFTNYGMNWVREAPGQGLEWMGWINTYTGERIYADDFKGRFAFSLDTSASTAYLQISSLKAEDTAVYFCARGEIYYGYDVGFVYWGQGTLVTVSS VL 1: DIVLTQSPASLAVSPGQRATITCRASKSVSTSGYSYMHWYQKKPGQPPKLLIYLASNLESGVPARFSGSGSGTDFTLTINPVEANDTANYYCQHSRELPWTFGQGTKVEIK VH 2: EVQLVESGGGLVQPGGSLRLSCAASGFTFNTYAMNWVRKAPGKGLEWVGRIRSKYNNYATYYADSVKDRFTISRDDSKNSLYLQMNSLKTEDTAVYYCVRHGNFGNSYVSWFAYWGQGTLVTVSS VL 2: QAVVTQEPSLTVSPGGTVTLTCRSSTGAVTTSNYANWVQEKPGQAPRGLIGGTNKRAPWTPARFSGSLLGGKAALTITGAQAEDEAEYYCVLWYSNLWVFGGGTKLTVL | 27% | 33% | 1180 pM | 1280 pM | 42% | 55% | 680 pM | 570 pM | 1020 pM
